Test results: PMC6695400, “Diversity of oligomerization in Drosophila semaphorins suggests a mechanism of functional fine-tuning” (Nature Communications, 2019)

Assays:
[1] = biological target: T1, Drosophila melanogaster full-length secreted semaphorin-2a (Sema2a_(full)) (Drosophila melanogaster, UniProt Q24323 26-724); test: MST; plexin-mVenus kept constant, unlabelled semaphorin titrated (1:1 dilution series); 25 °C; 15 mM HEPES pH 7.4, 150 mM NaCl, 2 mM CaCl2, 0.005% Tween-20; 1 h incubation at room temperature; apparent Kd; conditions: both partners purified
T1 construct: Semaphorin-2a, Drosophila melanogaster, residues 26D-724V; Disulfide-linked dimer in solution; source: HEK293T (37 °C), transient transfection, purified (HisTrap, SEC)
T1 sequence (looked up): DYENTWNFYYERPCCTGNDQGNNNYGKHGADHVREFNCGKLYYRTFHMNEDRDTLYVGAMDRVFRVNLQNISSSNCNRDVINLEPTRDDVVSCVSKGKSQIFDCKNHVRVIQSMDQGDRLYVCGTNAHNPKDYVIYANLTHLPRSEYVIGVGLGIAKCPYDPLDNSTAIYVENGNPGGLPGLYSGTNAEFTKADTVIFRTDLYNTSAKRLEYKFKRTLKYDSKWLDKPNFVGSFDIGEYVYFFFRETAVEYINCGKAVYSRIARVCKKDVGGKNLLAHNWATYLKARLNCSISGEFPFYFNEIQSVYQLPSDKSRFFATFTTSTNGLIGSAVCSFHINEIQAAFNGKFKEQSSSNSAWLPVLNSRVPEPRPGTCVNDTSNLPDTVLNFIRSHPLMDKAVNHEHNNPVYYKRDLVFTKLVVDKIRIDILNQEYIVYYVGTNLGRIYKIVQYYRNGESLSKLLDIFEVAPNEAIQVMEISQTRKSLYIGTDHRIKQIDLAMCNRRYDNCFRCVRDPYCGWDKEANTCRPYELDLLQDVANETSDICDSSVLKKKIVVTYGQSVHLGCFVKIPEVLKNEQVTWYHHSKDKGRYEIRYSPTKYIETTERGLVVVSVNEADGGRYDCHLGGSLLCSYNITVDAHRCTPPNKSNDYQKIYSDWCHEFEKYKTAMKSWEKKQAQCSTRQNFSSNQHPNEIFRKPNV

[2] = biological target: T2, mouse Sema3A (residues 26–730, furin sites mutated) with C-terminal 3C-Avi-His6 tag (mouse, UniProt O08665 26-730, R551A (printed: R551, 555A) | R555A (printed: R551, 555A)); test: pull-down; HEK293T co-transfected with a His6-tagged and a TwinStrep-tagged semaphorin; conditioned medium 5 days post transfection; two-step affinity chromatography (HisTrap, then StrepTactin); western blot and SDS-PAGE of flow-through and eluate; conditions: partners not purified
T2 construct: Semaphorin-3A, mouse, residues 26-730, furin cleavage sites mutated (R551, 555A); also called Sema3A-His6; source: HEK293T, transient co-transfection, secreted into conditioned medium; not shown: His6, C-terminal, kept
T2 sequence (looked up): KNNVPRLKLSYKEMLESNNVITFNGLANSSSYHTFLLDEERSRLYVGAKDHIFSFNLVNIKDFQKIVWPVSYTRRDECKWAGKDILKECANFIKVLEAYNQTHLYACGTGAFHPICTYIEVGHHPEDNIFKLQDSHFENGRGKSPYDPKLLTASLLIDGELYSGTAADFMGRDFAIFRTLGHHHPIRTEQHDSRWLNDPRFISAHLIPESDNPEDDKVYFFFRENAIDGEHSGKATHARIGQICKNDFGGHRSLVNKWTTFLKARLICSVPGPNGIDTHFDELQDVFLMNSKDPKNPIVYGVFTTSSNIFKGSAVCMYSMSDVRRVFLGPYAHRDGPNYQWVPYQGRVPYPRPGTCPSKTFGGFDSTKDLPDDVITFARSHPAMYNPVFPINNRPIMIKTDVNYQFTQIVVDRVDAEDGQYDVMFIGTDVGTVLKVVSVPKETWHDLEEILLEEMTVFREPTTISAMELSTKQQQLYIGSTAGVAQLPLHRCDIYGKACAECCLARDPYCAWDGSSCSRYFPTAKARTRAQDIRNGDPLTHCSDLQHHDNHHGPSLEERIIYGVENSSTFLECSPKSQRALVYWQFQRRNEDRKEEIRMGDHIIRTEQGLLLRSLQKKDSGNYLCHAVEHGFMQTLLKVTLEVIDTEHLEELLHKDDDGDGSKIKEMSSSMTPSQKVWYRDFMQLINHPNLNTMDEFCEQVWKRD

[3] = biological target: the molecule itself; test: crystal structure; sitting-drop vapour diffusion at 20 °C; data at 100 K

B1: Drosophila melanogaster PlexB1–4-mVenus (receptor, UniProt Q9V4A7 35-730, looked up)
chain: EELPAQALSPLNDIVAQFNLPSIPVQSTASSYGNRSIGNNIESVRDSQSKNYFTHMSFDFMHNVLFAGATNKILKLNENLRVLAEAVTGPLHDSPQCHAGGCPEDIETSLVNNFNKILVVSYAHDGILIACGSIRQGACEIYSLPRFPATPQFFAVPLAANDENASTYAFVGPARYAWKEEDILYVGTTFTNVGDYRHDVPAISSRRLDDLNYAEFSIQQSIINIDVKYRDHFLVDYIYGFNSSEYAYFIIVQKKSHLADEAGYVTRLARICITDPNYDSYTEITVQCTATENNVDYNIVRDAKVTPASHKLAQKMGIKKDDHVLVTVFSPSREISNQPESKSAMCIYSIKDIEDMFIENIHLCFNGTTKDRNLGYISGTINDGRCPIVGSLGNIYNFCSVGLKISGVSPITAHALFHFDNVSVTSVTATSTTDQQHSLAFLGTNMGVIKKVLLSGQSPGEYEEIVVDAGNRILPNTMMSPKKDFLYVLSQRKITKLRIEHCSVYTNCSACLESRDPFCGWCSLEKRCTVRSTCQRDTSASRWLSLGSGQQCIEFESIIPEKIPISELSHLHLIIRTLPEPFNAKYRCVFGNSTPIDAEILENGLGCATPPLDERPLIPTNTDHILVPLSVRSSETNKDFVSRNFAFFDCSHHGNCQECLQSSWGCNWCIFDNKCVHKSLQCRNIENAVSTVGHCP
notes: Plexin B, Drosophila melanogaster, domains 1-4 of the ectodomain, residues 35E-730P; source: High Five cells (Trichoplusia ni), baculovirus (pBacPAK9, GP64 signal peptide), purified (HisTrap, SEC); not shown: mVenus, C-terminal, kept
[1]
  Kd: 25 nM

B2: mouse Sema3C (residues 22–711, furin sites mutated) with C-terminal TwinStrep tag (ligand, UniProt Q62181 22-711, looked up)
chain: SSQPQARVYLTFDELRETKTSEYFSLSHQQLDYRILLMDEDQDRIYVGSKDHILSLNINNISQEPLSVFWPASTIKVEECKMAGKDPTHGCGNFVRVIQTFNRTHLYVCGSGAFSPVCTYLNRGRRSEDQVFMIDSKCESGKGRCSFNPNVNTVSVMINEELFSGMYIDFMGTDAAIFRSLTKRNAVRTDQHNSKWLSEPMFVDAHVIPDGTDPNDAKVYFFFKERLTDNNRSTKQIHSMIARICPNDTGGQRSLVNKWTTFLKARLVCSVTDEDGPETHFDELEDVFLLETDNPRTTLVYGIFTTSSSVFKGSAVCVYHLSDIQTVFNGPFAHKEGPNHQLISYQGRIPYPRPGTCPGGAFTPNMRTTKDFPDDVVTFIRNHPLMYNSIYPIHRRPLIVRIGTDYKYTKIAVDRVNAADGRYHVLFLGTDRGTVQKVVVLPTNSSASGELILEELEVFKNHVPITTMKISSKKQQLYVSSNEGVSQVSLHRCHIYGTACADCCLARDPYCAWDGHSCSRFYPTGKARSRAQDVRHGNPLTQCRGFNLKAYRNAAEIVQYGVRNNSTFLECAPKSPQASIKWLLQKDKDRRKEVKLNERIIATSQGLLIRSVQDSDQGLYHCIATENSFKQTIAKINFKVLDSEMVAVVTDKWSPWTWAGSVRALPFHPKDILGAFSHSEMQLINQYCKD
notes: Semaphorin-3C, mouse, residues 22-711, furin cleavage sites mutated (R548, 552A); also called Sema3C-TwinStrep; source: HEK293T, transient co-transfection, secreted into conditioned medium; not shown: TwinStrep, C-terminal, kept
[2]
  stoichiometry N: 1

B3: Drosophila melanogaster Sema2a1–3 (sema, PSI and Ig-like domains) (domain or fragment, UniProt Q24323 27-671, looked up)
chain: YENTWNFYYERPCCTGNDQGNNNYGKHGADHVREFNCGKLYYRTFHMNEDRDTLYVGAMDRVFRVNLQNISSSNCNRDVINLEPTRDDVVSCVSKGKSQIFDCKNHVRVIQSMDQGDRLYVCGTNAHNPKDYVIYANLTHLPRSEYVIGVGLGIAKCPYDPLDNSTAIYVENGNPGGLPGLYSGTNAEFTKADTVIFRTDLYNTSAKRLEYKFKRTLKYDSKWLDKPNFVGSFDIGEYVYFFFRETAVEYINCGKAVYSRIARVCKKDVGGKNLLAHNWATYLKARLNCSISGEFPFYFNEIQSVYQLPSDKSRFFATFTTSTNGLIGSAVCSFHINEIQAAFNGKFKEQSSSNSAWLPVLNSRVPEPRPGTCVNDTSNLPDTVLNFIRSHPLMDKAVNHEHNNPVYYKRDLVFTKLVVDKIRIDILNQEYIVYYVGTNLGRIYKIVQYYRNGESLSKLLDIFEVAPNEAIQVMEISQTRKSLYIGTDHRIKQIDLAMCNRRYDNCFRCVRDPYCGWDKEANTCRPYELDLLQDVANETSDICDSSVLKKKIVVTYGQSVHLGCFVKIPEVLKNEQVTWYHHSKDKGRYEIRYSPTKYIETTERGLVVVSVNEADGGRYDCHLGGSLLCSYNITVDAHRCTPPNK
notes: Semaphorin-2a, Drosophila melanogaster, sema-PSI-Ig, residues 27Y-671K; Disulfide-linked dimer in the crystal; source: HEK293S-GnTI- or HEK293T with kifunensine, transient transfection, purified (HisTrap, SEC)
[3]
  binding result: binds
